From the RNAGym collection of RNA variant scans (doi:10.7554/elife.80360)

B1: HDV Ribozyme (parent)
chain: GGCCGGCAUGGUCCCAGCCUCCUCGCUGGCGCCGGCUGGGCAACAUUCCGAGGGGACCGUCCCCUCGGUAAUGGCGAAUGGGACCCA

Variants of: B1
Test: self-cleavage, relative activity (ratio to wild type); higher = more cleavage; co-transcriptional

Variant	self-cleavage
GGCCGGCAUGGUCCCAGCCUCAUCGCUGGAGCCGGCUGGGCAACAUUCCGAGGGGACCGUCCCCUCGGUAAUGGCGAAUGGGACCCA [C22A C30A]	0.0405
GGCCGGCAUGGUCCCAGCCUCAUCGCUGGUGCCGGCUGGGCAACAUUCCGAGGGGACCGUCCCCUCGGUAAUGGCGAAUGGGACCCA [C22A C30U]	0.121
GGCCGGCAUGGUCCCAGCCUCAUCGCUGGCGCCGGCUGGGCAACAUUCUGAGGGGACCGUCCCCUCGGUAAUGGCGAAUGGGACCCA [C22A C49U]	0.338
GGCCGGCAUGGUCCCAGCCUCAUCGCUGGCGCCGGCUGGGCAACAUUCCGAGGGGACCGUCCCCUCGGUAAUGGCGAAUGGGACCCC [C22A A87C]	0.491
GGCCGGCAUGGUCCCAGCCUCAUCGCUGGCGCCGGCUGGGCAUCAUUCCGAGGGGACCGUCCCCUCGGUAAUGGCGAAUGGGACCCA [C22A A43U]	0.0437
GGCCGGCAUGGUCCCAGCCUCAUCGCUGGCGCCGGCUGGGCAACAUUCCGAGGGGACCGUCCCCUCGGUAAUGGGGAAUGGGACCCA [C22A C75G]	0.0604
GGCCGGCAUGGUCCCAGCCUCAUCGCUGGCGCCGGCUGGGCAACAUUCCGAGGGGACCGUCCCCUCGGUAAUGGAGAAUGGGACCCA [C22A C75A]	0.0308
GGCCGGCAUGGUCCCAGCCUUCUCGCUGGCGCCGGCUGGGCAACAUUCCGAGGGGACCGUCCCCUCGGUAAUGGCGAAAGGGACCCA [C21U U79A]	0.0573
GGCCGGCAUGGUCCCAGCCUCAUCGCUGGCGCCGGCUGGGUAACAUUCCGAGGGGACCGUCCCCUCGGUAAUGGCGAAUGGGACCCA [C22A C41U]	0.252
GGCCGGCAUGGUCCCAGCCUCAUUGCUGGCGCCGGCUGGGCAACAUUCCGAGGGGACCGUCCCCUCGGUAAUGGCGAAUGGGACCCA [C22A C24U]	0.0361
GGCCGGCAUGGUCCCAGCCUCAUGGCUGGCGCCGGCUGGGCAACAUUCCGAGGGGACCGUCCCCUCGGUAAUGGCGAAUGGGACCCA [C22A C24G]	0
GGCCGGCAUGGUCCCAGCCUCAUAGCUGGCGCCGGCUGGGCAACAUUCCGAGGGGACCGUCCCCUCGGUAAUGGCGAAUGGGACCCA [C22A C24A]	0.188
GGCCGGCAUGGUCCCAGCCUCAUCGCUGGCGCCGGCUGGGCAACAUUCCGAGGGGACCGUCCCCUGGGUAAUGGCGAAUGGGACCCA [C22A C66G]	0.373
GGCCGGCAUGGUCCCAGCCUCAUCGCUGGCGGCGGCUGGGCAACAUUCCGAGGGGACCGUCCCCUCGGUAAUGGCGAAUGGGACCCA [C22A C32G]	0.0437
GGCCGGCAUGGUCCCAGCCUCAUCGCUGGCGACGGCUGGGCAACAUUCCGAGGGGACCGUCCCCUCGGUAAUGGCGAAUGGGACCCA [C22A C32A]	0.0678
GGCCGGCAUGGUCCCAGCCUCAUCGCUGGCGCCGGCUGGGCGACAUUCCGAGGGGACCGUCCCCUCGGUAAUGGCGAAUGGGACCCA [C22A A42G]	0

Variant	self-cleavage
GGCCGGCAUGGUCCCAGCCUCAUCGCUGGCGCCGGCUGGGCCACAUUCCGAGGGGACCGUCCCCUCGGUAAUGGCGAAUGGGACCCA [C22A A42C]	0
GGCCGGCAUGGUCCCAGCCUCAUCGCUGGCGCCGGCUGGGCAACAUUGCGAGGGGACCGUCCCCUCGGUAAUGGCGAAUGGGACCCA [C22A C48G]	0.363
GGCCGGCAUGGUCCCAGCCUCAUCGCUGUCGCCGGCUGGGCAACAUUCCGAGGGGACCGUCCCCUCGGUAAUGGCGAAUGGGACCCA [C22A G29U]	0.128
GGCCGGCAUGGUCCCAGCCUCAUCGCUGGCGCCGGCUGGGCAAUAUUCCGAGGGGACCGUCCCCUCGGUAAUGGCGAAUGGGACCCA [C22A C44U]	0.0282
GGCCGGCAUGGUCCCAGCCUCAUCGCUGGCGCCGGCUGGGCAACAUUCCGAGGGGACCGUCCCCUCGGUAAUGGCGAAUGGGCCCCA [C22A A83C]	0.147
GGCCGGCAUGGUCCCAGCCUUCUCGCUGGCGCCGGCUGGGCAACAGUCCGAGGGGACCGUCCCCUCGGUAAUGGCGAAUGGGACCCA [C21U U46G]	0.0978
GGCCGGCAUGGUCCCAGCCUUCUCGCUGGCGCCGGCUGGGCAACAAUCCGAGGGGACCGUCCCCUCGGUAAUGGCGAAUGGGACCCA [C21U U46A]	0.511
GGCCGGCAUGGUCCCAGCCUUCUCGCUGGCGCCGGCUGGGCAACACUCCGAGGGGACCGUCCCCUCGGUAAUGGCGAAUGGGACCCA [C21U U46C]	0.386
GGCCGGCAUGGUCCCAGCCUCAUCGCUGGCGCCGGCUGGGCAACGUUCCGAGGGGACCGUCCCCUCGGUAAUGGCGAAUGGGACCCA [C22A A45G]	0.225
GGCCGGCAUGGUCCCAGCCUCAUCGCUGGCGCCGGCUGGGCAACAUUCCGAGGGGAACGUCCCCUCGGUAAUGGCGAAUGGGACCCA [C22A C57A]	0.208
GGCCGGCAUGGUCCCAGCCUUCUCGCUGGCGCCGGCUGGGCAACAUUCCGAGGGGACCGGCCCCUCGGUAAUGGCGAAUGGGACCCA [C21U U60G]	0.122
GGCCGGCAUGGUCCCAGCCUUCUCGCUGGCGCCGGCCGGGCAACAUUCCGAGGGGACCGUCCCCUCGGUAAUGGCGAAUGGGACCCA [C21U U37C]	0.354
GGCCGGCAUGGUCCCAGCCUUCUCGCUGGCGCCGGCUGGGCAACAUUCCGAGGGGACCGUCCCCUCGGAAAUGGCGAAUGGGACCCA [C21U U69A]	0.148
GGCCGGCAUGGUCCCAGCCUUCUCGCUGGCGCCGGCUGGGCAACAUUCCGAGGGGACCGUCCCCUCGGGAAUGGCGAAUGGGACCCA [C21U U69G]	0.19
GGCCGGCAUGGUCCCAGCCUCAUCGCUGGCGCCGGCUGGGCAACAUUCCGAGGGGACCGUCCCCUCGGUAAUGGCGAAUGGGACCUA [C22A C86U]	0.293
GGCCGGCAUGGUCCCAGCCUCAUCGCUGGCGCCGGCUGGGCAACAUUCCGCGGGGACCGUCCCCUCGGUAAUGGCGAAUGGGACCCA [C22A A51C]	0.341
